Test results reported in patent publication US10640563B2, “Anti-B7-H3 antibodies and antibody drug conjugates” (AbbVie Inc., priority 2016, dated 2020).
Changes are numbered by the printed parent chain.

B1: Ab16 (antibody, V domains shown)
VH: EVKLLESGGGLVQPGGSLKLSCAASGFDFSRYWMSWVRQAPGKGLEWIGEINPDSSTINYTPSLKDKFIISRDNAKNTLYLQMSKVRSEDTALYYCARPGFGNYIYAMDYWGQGTSVTVSS
VL: DIQMTQTTSSLSASLGDRVTINCRASQDISNFLNWYQQKPDGTVKLLIYYTSRLYLGVPSRFSGSGSGTDYSLTISNLEQEDIATYFCQQGNTLPPTFGGGTKLEIK
B2: Ab17 (antibody, V domains shown)
VH: EVKLVESGGGLVQPGGSLKLSCAASGFTFSSYIMSWVRQTPEKRLEWVASIVSSNITYYPDSMKGRFTISRDNARNILYLQMSSLKSEDTAMYYCARSGTRAWFAYWGQGTLVTVSA
VL: DIVLTQSPASLAVSLGQRATISCRASKSVSTSAYSYMHWYQQKPGQPPKLLIYLASNLESGVPARFSGSGSGTDFTLNIHPVEEEDAATYYCQHSRELPYTFGGGTKLEIK
B3: Ab13 (antibody, V domains shown)
VH: DVQLQESGPDLVKPSQSLSLTCTVTGYSITSGYSWHWIRQFPGNKLEWMGYIHSSGSTNYNPSLKSRISINRDTSKNQFFLQLNSVTTEDTATYYCAGYDDYFEYWGQGTTLTVSS
VL: DIVMTQSQKFMSTSVGDRVSVTCKASQNVGFNVAWYQQKPGQSPKALIYSASYRYSGVPDRFTGSGSGTDFTLTISNVQSEDLAEYFCQQYNSYPFTFGSGTKLEIK
B4: Ab14 (antibody, V domains shown)
VH: EVKLVESGGGLVKPGGSLKLSCAASGFTFSSYGMSWVRQTPEKRLEWVATISGGGTNTYYPDSVEGRFTISRDNAKNFLYLQMSSLRSEDTALYYCARHYGSQTMDYWGQGTSVTVSS
VL: DIQMTQSPASLSASVGETVTITCRTSGNIHNYLTWYQQKQGKSPQLLVYNAKTLADGVPSRFSGSGSGTQFSLKINSLQPEDFGSYYCQHFWSIMWTFGGGTKLEIK
B5: Ab10 (antibody, V domains shown)
VH: DVQLQESGPGLVKPSQSLSLTCTVTGYSITSDYAWNWIRQFPGNRLEWMGHINYSGITNYNPSLKSRISITRDTSKNQFFLQLYSVTTEDTATYFCARRSLFYYYGSSLYAMDYWGQGTSVTVSS
VL: DVVMTQSPFSLPVSLGDQASISCRSSQSLVHSNGNTYLHWYLQKPGQSPKLLIYKVSNRFSGVPDRFSGSGSGTDFTLKISRVEAEDLGVYFCSQSTHVPWTFGGGTKLEIK
B6: Ab2 (antibody, V domains shown)
VH: QVQLQQPGAELVKPGASVKLSCKASGYTFTSYWMHWVKQRPGQGLEWIGMIHPDSGTTNYNEKFRSKATLTVDKSSSTAYMQLSSLTSEDSAVYYCAVYYGSTYWYFDVWGTGTTVTVSS
VL: B5 VL with S7T, F9L, S20Y, S32I, L42R, V99F, W101F, G105S
B7: huAb18v1-CZ (conjugate)
VH: EVQLVQSGAEVKKPGSSVKVSCKASGYSFTSYTIHWVRQAPGQGLEWMGYINPNSRNTDYNQKFKDRVTITADKSTSTAYMELSSLRSEDTAVYYCARYSGSTPYWYFDVWGQGTTVTVSS
VL: DIQLTQSPSFLSASVGDRVTITCRASSSVSYMNWYQQKPGKAPKLLIYATSNLASGVPSRFSGSGSGTEFTLTISSLQPEDFATYYCQQWSSNPLTFGQGTKLEIK
B8: huAb18v3-CZ (conjugate)
VH: B7 VH with M48I, V68T, I70L, K74R
VL: B7 VL with A42S, L45P, L46W, G63V, G65V, F70H
B9: huAb18v4-CZ (conjugate)
VH: B7 VH with N61A, K65Q, D66G, I70L
VL: B7 VL with A42S, L45P, L46W, G63V, G65V, F70H
B10: huAb18v5-CZ (conjugate)
VH: B7 VH
VL: EIVLTQSPDFQSVTPKEKVTITCRASSSVSYMNWYQQKPDQSPKLLIKATSNLASGVPSRFSGSGSGTDFTLTINSLEAEDAATYYCQQWSSNPLTFGQGTKLEIK
B11: huAb18v8-CZ (conjugate)
VH: B7 VH with M48I, V68T, I70L, K74R
VL: B7 VL with L45P, L46W, G63V, F70H
B12: huAb3v3-CZ (conjugate)
VH: EVQLVQSGAEVKKPGSSVKVSCKASGYTFSSYWMHWVRQAPGQGLEWIGLIHPDSGSTNYNEMFKNRATLTVDRSTSTAYVELSSLRSEDTAVYFCAGGGRLYFDYWGQGTTVTVSS
VL: DVVMTQSPLSLPVTPGEPASISCRSSQSLVHSNGDTYLRWYLQKPGQSPQLLIYKVSNRFSGVPDRFSGSGSGTDFTLKISRVEAEDVGVYFCSQSTHVPYTFGGGTKVEIK
B13: huAb3v5-CZ (conjugate)
VH: B12 VH with V81M, F95Y
VL: B12 VL with F92Y
B14: huAb3v1-CZ (conjugate)
VH: B12 VH with I48M, A68V, L70I, V72A, R74K, V81M, F95Y, G98R
VL: B12 VL with V2I, F92Y
B15: huAb18v2-CZ (conjugate)
VH: B7 VH with N61A, K65Q, D66G, I70L
VL: B7 VL
B16: huAb18v10-CZ (conjugate)
VH: B7 VH with N61A, K65Q, D66G, I70L
VL: B7 VL with L45P, L46W, G63V, F70H

Target: T1, soluble ECD of human B7-H3 (Homo sapiens, UniProt Q5ZPR3)
T1 construct: His tag (6xHis) (C); made in house
T1 sequence (Q5ZPR3 with tags, fused parts or gaps): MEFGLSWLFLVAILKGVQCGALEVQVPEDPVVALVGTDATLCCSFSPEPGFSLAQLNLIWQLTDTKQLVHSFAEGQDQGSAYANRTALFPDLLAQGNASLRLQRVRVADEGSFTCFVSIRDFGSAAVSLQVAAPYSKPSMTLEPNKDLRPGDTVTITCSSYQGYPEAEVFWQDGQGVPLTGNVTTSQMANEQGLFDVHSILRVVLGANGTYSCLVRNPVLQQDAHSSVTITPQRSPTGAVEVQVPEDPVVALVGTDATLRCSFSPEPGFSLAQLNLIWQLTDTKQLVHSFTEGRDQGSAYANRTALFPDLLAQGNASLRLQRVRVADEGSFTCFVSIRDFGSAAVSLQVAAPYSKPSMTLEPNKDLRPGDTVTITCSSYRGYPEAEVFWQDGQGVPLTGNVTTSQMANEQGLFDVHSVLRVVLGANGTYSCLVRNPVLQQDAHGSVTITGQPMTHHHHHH
Assay: Biacore T200 SPR binding kinetics, mAb capture
Settings: Biacore T200, Fc capture of mAb, B7-H3 ECD as analyte, 1:1 binding model
Experimental: The binding affinity of the purified anti-B7-H3 monoclonal antibodies was determined by surface […]. […] The binding kinetics were derived from SPR measurements using a Biacore T200 instrument and a mAb capture approach (as described in the materials and methods below).
Biacore T200 SPR instruments were used to measure the binding kinetics of human B7-H3 (analyte) binding to various mAbs (ligands). The assay format was Fc-based capture via immobilized anti-mouse (Fc) (Pierce 31170) or immobilized anti-human (Fc) (Pierce 31125). A standard amine coupling protocol was employed to immobilize the capture reagents via primary amines to the carboxy-methyl (CM) dextran surface of CM5 sensorchips (Biacore); capture antibodies were coupled to a level of approximately 5000 RU. For binding kinetic measurements the assay buffer was HBS-EP+ (Biacore): 10 mM Hepes, pH7.4, 150 mM NaCl, 3 mM EDTA, 0.05% polysorbate 20. During the assay, all measurements were referenced against the capture surface alone. Each assay cycle consisted of the following steps: 1) Capture of ligand to approximately 50 RU; 2) Analyte injection over both reference and test surface, 240 μL at 80 μL/min, after which the dissociation was monitored for 900 seconds at 80 μL/min; 3) Regeneration of capture surface with low pH glycine. For kinetic determinations analyte injections were 3-point, 9-fold dilution series of 900 nM, 100 nM and 11.11 nM, buffer only injections were included for secondary referencing. Data were processed and fit to a 1:1 binding model using Biacore T200 Evaluation Software to determine the binding kinetic rate constants, ka (on-rate) and kd (off-rate), and the equilibrium dissociation constant (affinity, KD).

Going from B1 to B2, the “huB7-H3 ka” value rises from 140000 M⁻¹ s⁻¹ to 540000 M⁻¹ s⁻¹ (3.9-fold).

Compared with B3, B4 is 3-fold lower in “huB7-H3 ka” value: 330000 M⁻¹ s⁻¹ for the first, 110000 M⁻¹ s⁻¹ for the second.

Compared with B5, B6 is 2.9-fold higher in “huB7-H3 ka” value: 41000 M⁻¹ s⁻¹ for the first, 120000 M⁻¹ s⁻¹ for the second.

Compared with B1, B2 is 170-fold lower in “huB7-H3 kd” value: 0.0032 s⁻¹ for the first, 1.9e-05 s⁻¹ for the second.

Compared with B3, B4 is 4.1-fold lower in “huB7-H3 kd” value: 0.0058 s⁻¹ for the first, 0.0014 s⁻¹ for the second.

Compared with B5, B6 is 15-fold higher in “huB7-H3 kd” value: 0.00019 s⁻¹ for the first, 0.0029 s⁻¹ for the second.

Test system: NCI-H146 cells
Assay: In vivo xenograft model of small cell lung cancer (NCI-H146)
Parameters: species or system mice
Settings: Table 11; 6 mg/kg/IP/QDx1

Going from B7 to B8, the “TGD (%)” value falls from 45% to 39%.

For B9, the “TGD (%)” value was 48%.

Compared with B7, B8 is higher in “TGImax (%)” value: 79% for the first, 81% for the second.

For B9, the “TGImax (%)” value was 85%.

Test system: HCC38 cell line
Assay: Cell cytotoxicity of ADCs in HCC38 cell line
Format: cell-based
Settings: Table 10; CZ conjugates
Experimental: The humanization of chAb18 generated 10 variants (described above in Table 9) that retained binding to human and cyno B7-H3 as assessed by FACS (the method of which is described above in Example 6). These variants were further characterized for binding by SPR and were successfully conjugated to the Bcl-xL inhibitor synthon CZ using Method A (described above) and assessed for cell cytotoxicity as described in Example 7. The parental chAb18 from which the variants were derived was also tested as a comparator. All humanized variants had similar binding properties as assessed by biacore, and retained binding activity to cell surface expressed as conjugates with the CZ synthon. The cytotoxicity of all of the variants as CZ synthons were similar to the chAb18 from which they were derived.
Humanized chAb18 variants were conjugated to the CZ synthon and tested for cytotoxicity in HCC38 cell line.

B7 and B8 are within 1.5-fold of each other in IC50: 0.39 nM for the first, 0.32 nM for the second.

Going from B9 to B10, the IC50 falls from 0.29 nM to 0.12 nM (2.4-fold). The second is the more potent here.

In the case of B11, the IC50 is reported as 1.3 nM.

Same assay, conditions: Table 14; CZ conjugates

Compared with B12, B13 is 54-fold lower in IC50: 9.22 nM for the first, 0.17 nM for the second. The second is the more potent here.

B14 showed an IC50 of 0.53 nM.

Test system: soluble ECD of cyno B7-H3
Assay: Biacore T200 SPR binding kinetics, mAb capture
Parameters: species or system cynomolgus monkey
Settings: Biacore T200, Fc capture of mAb, B7-H3 ECD as analyte, 1:1 binding model

soluble ECD of cyno B7-H3, sequence (as listed by the source): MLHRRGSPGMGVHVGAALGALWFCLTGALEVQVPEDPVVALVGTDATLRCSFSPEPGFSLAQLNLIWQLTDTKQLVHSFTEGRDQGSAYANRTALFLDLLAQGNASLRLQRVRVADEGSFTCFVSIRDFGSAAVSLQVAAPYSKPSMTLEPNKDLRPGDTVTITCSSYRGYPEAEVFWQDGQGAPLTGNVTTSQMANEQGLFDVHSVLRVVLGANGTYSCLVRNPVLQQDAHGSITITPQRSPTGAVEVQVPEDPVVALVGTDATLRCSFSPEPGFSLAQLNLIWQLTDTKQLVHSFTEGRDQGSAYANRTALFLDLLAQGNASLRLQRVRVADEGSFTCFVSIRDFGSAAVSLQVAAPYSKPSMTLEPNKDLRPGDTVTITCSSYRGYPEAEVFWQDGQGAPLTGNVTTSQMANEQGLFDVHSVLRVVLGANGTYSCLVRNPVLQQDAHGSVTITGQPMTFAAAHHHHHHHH

B1 and B2 are within 1.5-fold of each other in “cynoB7-H3 ka” value: 750000 M⁻¹ s⁻¹ for the first, 510000 M⁻¹ s⁻¹ for the second.

First: B3
Second: B4
The “cynoB7-H3 ka” value of the first is 1.6-fold lower: 440000 M⁻¹ s⁻¹ for the first, 690000 M⁻¹ s⁻¹ for the second.

B5 and B6 are within 1.5-fold of each other in “cynoB7-H3 ka” value: 200000 M⁻¹ s⁻¹ for the first, 230000 M⁻¹ s⁻¹ for the second.

First: B1
Second: B2
The “cynoB7-H3 kd” value of the first is 560-fold higher: 0.0056 s⁻¹ for the first, 1e-05 s⁻¹ for the second.

B3 and B4 are within 1.5-fold of each other in “cynoB7-H3 kd” value: 0.0037 s⁻¹ for the first, 0.003 s⁻¹ for the second.

Going from B5 to B6, the “cynoB7-H3 kd” value rises from 0.0042 s⁻¹ to 0.011 s⁻¹ (2.6-fold).

Test system: not listed separately
Assay: Aggregation of conjugates by SEC
Format: physicochemical
Settings: Table 10; CZ conjugates of Ab18 variants

B7 and B15 are the same in “% agg by SEC” value: 3.3% for the first, 3.3% for the second.

Going from B8 to B16, the “% agg by SEC” value falls from 3.6% to 3.2%.

First: B9
Second: B10
The “% agg by SEC” value of the first is higher: 5.5% for the first, 4.2% for the second.

For B11, the “% agg by SEC” value was 3.5%.

Same assay, conditions: Table 14; CZ conjugates of Ab3 variants

First: B12
Second: B13
The “% agg by SEC” value of the first is lower: 2.5% for the first, 5.9% for the second.

In the case of B14, the “% agg by SEC” value is reported as 3.3%.
